Assay results published in PMC5398634.

Molecular target: Erwinia amylovora AmyR (Erwinia amylovora strain CFBP1430)
Assay: crystal structure; native AmyR at 8 mg/ml, sitting-drop vapour diffusion, 0.1 M sodium cacodylate pH 6.9, 0.2 M magnesium chloride, 46% (v/v) PEG 200, 293 K; 1.95 Å, space group P 2(1)2(1)2; homodimer in the asymmetric unit

Q: Which stoichiometry N does the source give for “Erwinia amylovora AmyR (natural protein)” here?
A: The stoichiometry N was 2.
